Tests used:
purified protein [1] = substrate: CCO; assay: purified protein; details: 330 µM NAD+, 8 µM PMS, 330 µM NBT, 0.1% gelatin, 100 mM Tris-HCl pH 8.6, ~22 °C
purified protein [2] = substrate: CCCCO; assay: purified protein; format: biochemical, Pseudothermotoga hypogea; details: NADP+ co-substrate, CAPS pH 11.6, 1 mM DTT, 0.1 mM FeCl2, 80 °C, anaerobic, aerobically purified enzyme

B1: Sc ADH (Saccharomyces cerevisiae S288C) (protein)
chain: SIPETQKGVIFYESHGKLEYKDIPVPKPKANELLINVKYSGVCHTDLHAWHGDWPLPVKLPLVGGHEGAGVVVGMGENVKGWKIGDYAGIKWLNGSCMACEYCELGNESNCPHADLSGYTHDGSFQQYATADAVQAAHIPQGTDLAQVAPILCAGITVYKALKSANLMAGHWVAISGAAGGLGSLAVQYAKAMGYRVLGIDGGEGKEELFRSIGGEVFIDFTKEKDIVGAVLKATDGGAHGVINVSVSEAAIEASTRYVRANGTTVLVGMPAGAKCCSDVFNQVVKSISIVGSYVGNRADTREALDFFARGLVKSPIKVVGLSTLPEIYEKMEKGQIVGRYVVDTSK
Km (purified protein [1]): 22.7 ± 2.9 mM
kcat (purified protein [1]): 20.5 ± 2.37 s⁻¹

B2: Th ADH (Th ADH_ae) (Pseudothermotoga hypogea DSM 11164 = NBRC 106472) (protein)
chain: MENFVFHNPTKLIFGKGTIPKIGEEIKSFGIKKVLMLYGGGSIKKNGVYDQVVESLKRNGIEWVEVSGVKPNPVLSKVHEAIEVCRKENVEAVLGVGGGSVIDSAKAIAAGVLYEGDIWDAFAGKHKINNALPVFAILTISATGTEMNGNAVVTNEKTQEKWAISAKCLYPRVSIIDPTAQFSLPKEQTVYGAVDAIAHTLEYYFDGSDSDIQNQISESIIRSIMKSTEVLIDNPQDYEARANFAWCATIALNGLTAAGRKGGDWSCHKIEHSLSALYDIAHGAGLAIVFPAWMRYVYKQKPQQFERFAKHVFSIDAVGEEAILKGIDAFKAWLRKVGAPVSLRDVGIPAQDIDRIVENVMKQGPSFGVLKKLGKEDVKQILLIASQ
notes: ORF in pET-33b, N-terminal His6 tag (kept), E. coli BL21(DE3) Rosetta grown anaerobically, purified aerobically; ~42 kDa
Km (purified protein [2]): 34.1 ± 0.6 mM
kcat (purified protein [2]): 3.943 ± 0.0867 s⁻¹
